Target: T1, Hyperpolarization-activated cyclic-nucleotide-gated (HCN) ion channel 1 (HCN1)
T1 sequence (O60741 1-890, species assumed, looked up): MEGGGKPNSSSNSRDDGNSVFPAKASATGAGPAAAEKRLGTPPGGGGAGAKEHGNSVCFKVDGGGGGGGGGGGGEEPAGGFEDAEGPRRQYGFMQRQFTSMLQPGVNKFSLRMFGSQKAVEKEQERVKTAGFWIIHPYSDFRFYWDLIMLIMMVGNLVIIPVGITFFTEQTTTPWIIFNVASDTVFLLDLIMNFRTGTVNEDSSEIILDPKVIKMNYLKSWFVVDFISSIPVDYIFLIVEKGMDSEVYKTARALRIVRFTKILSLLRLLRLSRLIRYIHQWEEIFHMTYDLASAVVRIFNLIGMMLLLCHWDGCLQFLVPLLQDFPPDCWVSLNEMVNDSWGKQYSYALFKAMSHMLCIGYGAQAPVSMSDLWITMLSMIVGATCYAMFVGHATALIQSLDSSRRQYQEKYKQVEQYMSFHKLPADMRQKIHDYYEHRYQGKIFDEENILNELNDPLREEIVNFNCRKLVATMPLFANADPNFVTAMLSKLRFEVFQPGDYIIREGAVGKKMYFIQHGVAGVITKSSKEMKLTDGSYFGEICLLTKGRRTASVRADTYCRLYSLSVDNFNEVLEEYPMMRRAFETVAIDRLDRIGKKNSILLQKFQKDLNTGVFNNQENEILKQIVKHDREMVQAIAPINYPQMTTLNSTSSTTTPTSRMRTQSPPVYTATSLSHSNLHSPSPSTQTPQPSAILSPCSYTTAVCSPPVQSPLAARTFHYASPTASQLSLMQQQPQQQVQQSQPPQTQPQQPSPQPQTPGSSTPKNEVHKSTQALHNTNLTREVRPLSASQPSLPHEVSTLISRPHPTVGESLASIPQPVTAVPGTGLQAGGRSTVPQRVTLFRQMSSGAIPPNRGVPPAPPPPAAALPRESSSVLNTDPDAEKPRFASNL
Experiment: cell-based or functional assay

S4TKv1.4GYS (human Kv1.4 with S4 triple mutation R447N, L448A, R453I and pore mutation G528S) (from UniProt P22459 1-653)
reversal potential of HCN co-transfected with SPC: -22 mV | reversal potential of the current left after superfusion with Cs to block HCN1 homomultimers: -11.1 mV

— patent US20090304588A1
